To fix the notation:
B1: Peroxisome proliferator-activated receptor delta, residues 71 to 145; numbered along this chain, Q03181 (parent)
chain: NMECRVCGDKASGFHYGVHACEGCKGFFRRTIRMKLEYEKCERSCKIQKKNRNKCQYCRFQKCLALGMSHNAIRF

± gives the uncertainty stated by the source.

The variants in this data set derive from B1. In words: abundance fitness (aPCA) (normalised: wild type 0, dead -1); higher = more abundant; growth selection in yeast, the domain comes from the species named. The settings on record: Homo sapiens.
On to C58P, for which the abundance fitness was -1.04 ± 0.18.

As for C58G, the abundance fitness is -0.822 ± 0.068.

For the variant C58V, the abundance fitness was -0.944 ± 0.097.

Turning to C58W, the abundance fitness is -0.723 ± 0.089.

Turning to C58Y, the abundance fitness is -0.432 ± 0.16.

In the case of G26D, the abundance fitness came out at 0.114 ± 0.056.

G26T: the abundance fitness stood at 0.039 ± 0.047.

Consider G26N, for which the abundance fitness turned out to be 0.055 ± 0.067.

On to L36M, for which the abundance fitness was -0.05 ± 0.058.

Turning to K35Y, the abundance fitness was -0.456 ± 0.12.

For the variant K35D, the abundance fitness was -0.028 ± 0.07.

Regarding K35S, the abundance fitness was determined as 0.013 ± 0.039.

Regarding K35H, the abundance fitness is -0.169 ± 0.11.

Consider K35P, for which the abundance fitness was -0.509 ± 0.076.

For the variant C55K, the abundance fitness is -0.646 ± 0.18.

For the variant C55I, the abundance fitness was -0.67 ± 0.22.

For C55E, the abundance fitness is -1.03 ± 0.22.

Take H15E: the abundance fitness is -0.025 ± 0.045.

Consider H15P, for which the abundance fitness was -0.242 ± 0.055.

Turning to H15Q, the abundance fitness was -0.188 ± 0.066.

With H15F, the abundance fitness was -0.006 ± 0.069.

Consider H15G, for which the abundance fitness is -0.285 ± 0.039.

As to H15I, the abundance fitness is -0.154 ± 0.076.

With I73T, the abundance fitness was 0.184 ± 0.041.

Consider I73H, for which the abundance fitness was -0.017 ± 0.069.

As to I73C, the abundance fitness is 0.047 ± 0.057.

I73M: the abundance fitness turned out to be 0.137 ± 0.051.

Consider I73F, for which the abundance fitness is -0.094 ± 0.069.

I73N: the abundance fitness amounted to 0.039 ± 0.077.

Take I73R: the abundance fitness is -0.117 ± 0.036.

On to Y57I, for which the abundance fitness was -0.919 ± 0.36.

Y57P: the abundance fitness was -0.961 ± 0.18.

With Y57N, the abundance fitness was -0.946 ± 0.27.

Take Y57F: the abundance fitness was -0.186 ± 0.1.

In the case of Y57A, the abundance fitness was -0.355 ± 0.064.

As for R43M, the abundance fitness is -0.043 ± 0.052.

Take R43F: the abundance fitness was 0.082 ± 0.1.

R43Q: the abundance fitness is 0.111 ± 0.051.

For the variant R43A, the abundance fitness is -0.064 ± 0.049.

Consider R43I, for which the abundance fitness is -0.349 ± 0.13.

Turning to R43T, the abundance fitness is -0.161 ± 0.062.

Regarding H19W, the abundance fitness is -0.001 ± 0.044.

For H19M, the abundance fitness was 0.122 ± 0.047.

As to H19A, the abundance fitness was 0.11 ± 0.037.

For H19T, the abundance fitness was 0.041 ± 0.042.

Take H19Y: the abundance fitness is 0.038 ± 0.063.

Y16M: the abundance fitness is -0.171 ± 0.057.

On to Y16S, for which the abundance fitness was -0.132 ± 0.041.

As to Y16D, the abundance fitness was found to be 0.126 ± 0.056.

Consider N53T, for which the abundance fitness is -0.112 ± 0.051.

Take N53D: the abundance fitness was -0.08 ± 0.067.

With N53P, the abundance fitness was -0.468 ± 0.087.

For the variant N53C, the abundance fitness is -0.274 ± 0.11.

With N53I, the abundance fitness was -0.051 ± 0.074.

Consider R52D, for which the abundance fitness amounted to 0.075 ± 0.065.

Consider R52Q, for which the abundance fitness was -0.03 ± 0.052.

R52H: the abundance fitness is -0.307 ± 0.11.

As to R52I, the abundance fitness was 0.012 ± 0.087.

With R52P, the abundance fitness stood at 0.128 ± 0.045.

Regarding R52Y, the abundance fitness worked out at 0.012 ± 0.14.

For K46M, the abundance fitness is 0.066 ± 0.047.

As to K46Q, the abundance fitness is 0.106 ± 0.047.

For the variant K46T, the abundance fitness was 0.05 ± 0.046.

Consider K46P, for which the abundance fitness was 0.037 ± 0.044.

L64V: the abundance fitness was -0.022 ± 0.038.

Regarding L64W, the abundance fitness is -0.755 ± 0.1.

As for L64R, the abundance fitness was -0.391 ± 0.041.

On to L64C, for which the abundance fitness was -0.16 ± 0.073.

With L64A, the abundance fitness was -0.38 ± 0.059.

Turning to L64S, the abundance fitness is -0.648 ± 0.089.

On to V6E, for which the abundance fitness is -0.561 ± 0.11.

For M34S, the abundance fitness is -0.097 ± 0.043.

M34V: the abundance fitness is -0.577 ± 0.082.

For M34C, the abundance fitness is -0.032 ± 0.058.

Consider C45D, for which the abundance fitness is -1.01 ± 0.25.

As to C45K, the abundance fitness is -0.927 ± 0.17.

Regarding C45L, the abundance fitness was -0.766 ± 0.1.

Consider C45R, for which the abundance fitness was -0.768 ± 0.061.

As for C45M, the abundance fitness is -0.548 ± 0.11.

As to R33Y, the abundance fitness is -0.019 ± 0.13.

As for R33Q, the abundance fitness is 0.058 ± 0.061.

As to R33P, the abundance fitness was -0.972 ± 0.23.

Consider R33L, for which the abundance fitness worked out at 0.089 ± 0.044.

A11P: the abundance fitness is -0.197 ± 0.065.

Turning to A11Q, the abundance fitness is -0.546 ± 0.096.

As to A11V, the abundance fitness is -0.306 ± 0.05.

As to H70E, the abundance fitness came out at 0.172 ± 0.091.

H70W: the abundance fitness is -0.177 ± 0.072.

Turning to H70K, the abundance fitness is 0.019 ± 0.1.

Take H70T: the abundance fitness was determined as 0.157 ± 0.11.

H70I: the abundance fitness is 0.198 ± 0.09.

Consider N51F, for which the abundance fitness is -0.028 ± 0.12.

With N51I, the abundance fitness was -0.016 ± 0.1.

In the case of N51P, the abundance fitness was -0.307 ± 0.099.

For the variant N51E, the abundance fitness turned out to be 0.055 ± 0.039.

Regarding N51V, the abundance fitness was -0.17 ± 0.043.

Turning to K54A, the abundance fitness turned out to be 0.009 ± 0.04.

Regarding K54T, the abundance fitness is -0.017 ± 0.046.

With K54I, the abundance fitness was -0.031 ± 0.072.

As to K54Q, the abundance fitness is -0.012 ± 0.048.

Consider K54P, for which the abundance fitness is -0.037 ± 0.053.

I47D: the abundance fitness is -0.126 ± 0.054.

Consider I47C, for which the abundance fitness is -0.51 ± 0.062.

Consider I47F, for which the abundance fitness is -0.246 ± 0.074.

In the case of I47M, the abundance fitness was -0.132 ± 0.044.

Turning to I47N, the abundance fitness was -0.4 ± 0.098.

Consider I47S, for which the abundance fitness was -0.287 ± 0.038.

R30H: the abundance fitness is -0.067 ± 0.065.

For the variant R30N, the abundance fitness was determined as 0.021 ± 0.1.

Take K10Q: the abundance fitness stood at 0.08 ± 0.045.

K10H: the abundance fitness is -0.027 ± 0.094.

With K10D, the abundance fitness is -0.01 ± 0.059.

K10F: the abundance fitness was -0.283 ± 0.11.

In the case of K10M, the abundance fitness was -0.107 ± 0.059.

As for S44F, the abundance fitness is -0.005 ± 0.074.

For the variant S44R, the abundance fitness is -0.05 ± 0.032.

Take S44K: the abundance fitness was 0.12 ± 0.051.

Take S44A: the abundance fitness is -0.045 ± 0.039.

S44H: the abundance fitness was found to be 0.073 ± 0.065.

As to C4Q, the abundance fitness was -0.738 ± 0.12.

Regarding C4S, the abundance fitness was -0.669 ± 0.082.

Consider C4I, for which the abundance fitness was -1.14 ± 0.4.

On to C4H, for which the abundance fitness was -0.576 ± 0.17.

Turning to C4P, the abundance fitness was -1.07 ± 0.18.

Turning to C4K, the abundance fitness was -0.775 ± 0.13.

Take G13H: the abundance fitness is -0.545 ± 0.12.

Turning to G13F, the abundance fitness was -0.838 ± 0.17.

Take G13C: the abundance fitness was -0.596 ± 0.12.

In the case of G13S, the abundance fitness was -0.212 ± 0.048.

As for G13M, the abundance fitness was -0.431 ± 0.079.

In the case of G13Y, the abundance fitness is -0.385 ± 0.096.

With V18Q, the abundance fitness is -0.39 ± 0.082.

As to V18S, the abundance fitness is -0.505 ± 0.066.

As to V18C, the abundance fitness is -0.145 ± 0.066.

Consider T31V, for which the abundance fitness was -0.394 ± 0.063.

As to T31P, the abundance fitness was -1.16 ± 0.2.

On to T31C, for which the abundance fitness is -0.726 ± 0.14.

For the variant T31L, the abundance fitness is -0.985 ± 0.14.

With T31W, the abundance fitness was -0.588 ± 0.089.

Take T31D: the abundance fitness is -0.663 ± 0.16.

Turning to N1I, the abundance fitness was 0.16 ± 0.078.

Regarding N1Q, the abundance fitness is -0.218 ± 0.12.

As for Q56W, the abundance fitness was -0.341 ± 0.059.

Regarding Q56C, the abundance fitness came to 0.005 ± 0.067.

Regarding Q56I, the abundance fitness is -0.599 ± 0.19.

As for Q56K, the abundance fitness is -0.214 ± 0.063.

In the case of Q56A, the abundance fitness is 0.074 ± 0.035.

G8W: the abundance fitness is -0.812 ± 0.13.

As to G8H, the abundance fitness is -0.064 ± 0.087.

For G8D, the abundance fitness was -0.434 ± 0.1.

As to G8C, the abundance fitness was -0.582 ± 0.095.

Take E3Q: the abundance fitness is -0.059 ± 0.048.

As to E3Y, the abundance fitness was -0.182 ± 0.086.

As for E3R, the abundance fitness is -0.327 ± 0.041.

As to E3L, the abundance fitness is -0.106 ± 0.041.

As for E3W, the abundance fitness is -0.176 ± 0.054.

As to C7E, the abundance fitness is -0.656 ± 0.099.

With C24F, the abundance fitness is -0.364 ± 0.17.

For C24R, the abundance fitness was -0.823 ± 0.091.

Turning to C24A, the abundance fitness was -0.626 ± 0.13.

For C24L, the abundance fitness is -0.753 ± 0.1.

Regarding L66K, the abundance fitness was -0.018 ± 0.05.

With L66Y, the abundance fitness was -0.345 ± 0.12.

With L66T, the abundance fitness is 0.086 ± 0.049.

On to L66Q, for which the abundance fitness was 0.014 ± 0.056.

For N71G, the abundance fitness is -0.038 ± 0.035.

With N71L, the abundance fitness was -0.412 ± 0.054.

(Values after the Human Domainome abundance scans (Beltran et al. 2025).)
